According to patent US12077566B2, “Mutants of recombinant immunoregulatory protein of Ganoderma lucidum and applications thereof” (priority 2017, dated 2024):
Residue numbers refer to the chain shown, from its start. Names may count otherwise. “Also recorded” adds a separate entry of the source.

B1: rLZ-8 (K16A/S18A/K41A/D45A): alanine mutant of rLZ-8 at K16, S18, K41 and D45 (protein)
chain: MSDTALIFRLAWDVKALAFDYTPNWGRGNPNNFIDTVTFPAVLTAKAYTYRVAVSGRNLGVKPSYAVESDGSQKVNFLEYNSGYGIADTNTIQVFVVDPDTNNDFIIAQWN
B2: rLZ-8 (S18A): alanine mutant of rLZ-8 at S18 (protein)
chain: B1 chain with A16K, A41K, A45D
B3: rLZ-8 (D70K): rLZ-8 mutant after surface potential optimization, D70K (protein)
chain: B1 chain with A16K, A18S, A41K, A45D, D70K
B4: rLZ-8 (L17K/D70K): rLZ-8 mutant after surface potential optimization, L17K and D70K (protein)
chain: B1 chain with A16K, L17K, A18S, A41K, A45D, D70K
B5: mPEG-SPA-rLZ-8: rLZ-8 modified with methoxy polyethylene glycol succinimidyl propionate (conjugate, UniProt P14945 2-111, looked up)
Immunomodulatory protein Ling …: SDTALIFRLAWDVKKLSFDYTPNWGRGNPNNFIDTVTFPKVLTDKAYTYRVAVSGRNLGVKPSYAVESDGSQKVNFLEYNSGYGIADTNTIQVFVVDPDTNNDFIIAQWN
modifications: mPEG-SPA PEGylation
notes: rLZ-8 modified with methoxy polyethylene glycol succinimidyl propionate

Legend:
[1] = target: EGFR extracellular domain (Homo sapiens, UniProt P00533); test: Affinity test by surface plasmon resonance (Biacore T200, CM5 chip); format: binding; conditions: for Affinity with the EGFR (in words): compared with rLZ-8
Procedure: The Biacore™ T200 equipment (a Surface Plasmon Resonance from GE Company) is selected. Through the surface plasma resonance technology, the affinity of the rLZ-8 and the mutants thereof to the EGFR extracellular domain is tested. The CM5 chip is adopted to serve as the affinity test chip.
The EGFR extracellular domain (with an amino acid sequence of 25-645) serves as the ligand for coupling; 1 mg EGFR freeze-dried powders are diluted with HEPES buffer solution to a concentration of 400 μg/mL and set aside. Three 1.5 mL EP tubes are prepared; 10 μL ligand are respectively added into the three tubes, then 90 μL 10 mM sodium acetate with different pH values of 4.5, 5.0 and 5.5 are respectively added into the tubes and are mixed completely and uniformly; and a final concentration of the ligand is 40 μg/mL. Moreover, 200 μL 50 mM sodium acetate is added into another 1.5 mL EP tube.
The ligand has a molecular weight of 70 kDa, the analyte (rLZ-8) has a molecular weight of 12.4 kDa. In theory, one rLZ-8 […] can bind with one EGFR, and thus the stoichiometric ratio Sm is equal to 1. Through the following equations, the coupling amount RL of the ligand is calculated.
Through the experimental experience, the optimal reagent coupling amount is set to be 3*RL, and the coupling amount is set to be 1700 RU. The EGFR extracellular domain is successively coupled on the CM5 chip.
In the affinity test, in order to eliminate the influence of different concentrations on the affinity, every of the rLZ-8 and the mutants thereof are tested with eight concentrations, wherein: seven concentrations are gradient concentrations, and the last one is the test reference concentration.

[2] = test system: human liver cancer Hep G2 cells; conditions: for Tumor inhibitory effect (in words): after administration for 28 days; for Mice weight after experiment / Effect on survival time of the mice (in words): mouse, in vivo; for Mice tumor weight after experiment / Survival rate of mice after experiment: qd×28 i.v., rLZ-8 and mutants 0.5 mg/kg, sorafenib 50 mg/kg; for Survival rate of mice after experiment: 10 mice per group
Source text: Two weeks later, the model mice are divided into groups randomly, and each group has 10 mice. The administration method is caudal vein injection, once a day, for consecutive 28 days (qd×28, i.v.). […] During the experiment, if the mouse dies, the dead mouse is weighted on the same day, and the tumor tissue is taken out to be weighted. For the living mouse after administration for 28 days, the mouse is killed, and then the tumor tissue is taken out to be weighted. The death time and death number of the mice in each group are recorded in detail; the survival conditions of the mice of the experimental groups and the control groups are analyzed, and the survival rate is calculated, wherein the survival rate is obtained through subtracting the death number of the mice from the total number of the mice, and then dividing the difference by the total number of the mice.

[3] = test system: human breast cancer MCF7 cells; test: Orthotopic transplantation tumor model of human breast cancer MCF7 cells; format: in vivo, BALB/c nude mice; conditions: after administration for 28 days
Procedure: One day before the experiment, 0.5 mg of 17ß estradiol sustained release tablet is embedded below the neck skin of the BALB/c nude mice.

[4] = test system: human colon cancer SW480 cells; test: Transplantation tumor model of human colon cancer SW480 cells; format: in vivo, BALB/c nude mice; conditions: after administration for 28 days
Procedure: The RPMI1640 medium containing 10% fetal bovine serum is selected for the human colon cancer SW480 cells, and then is placed in the CO2 constant-temperature incubator at 37° C. for culturing. The SW480 cells at the logarithmic phase are digested by pancreatin and thereafter washed with serum-free RPMI1640 medium; 2×10^6 cells are inoculated below the back skin of the BALB/c nude mice; after the tumor blocks for observation are formed and have the diameter larger than 0.5 cm, the mice are divided into groups randomly; and the transplantation tumor model of human colon cancer SW480 cells are constructed in the BALB/c nude mice.

[5] = test system: liver cancer, lung cancer, breast cancer and colon cancer; test: Animal pharmacodynamic experiments of liver, lung, breast and colon cancer (summary statement); format: in vivo, mice; conditions: breast and colon cancer models together
[6] = test system: Hep G2 cytomembrane; test: In vitro cellular activity: binding with Hep G2 cytomembrane and entering the cell; format: cell-based; conditions: 100 μg/mL
[7] = test system: human lung cancer A549 cells; test: Orthotopic transplantation tumor model of human lung cancer A549 cells; conditions: for Mice survival rate after experiment / Mice tumor weight after experiment / Mice weight after experiment / Tumor inhibitory effect (in words): after administration for 28 days; for Effect on survival time (in words): compared with the rLZ-8;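 for all read-outs here: test animals were NOG mice aged 6-8 weeks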
Procedure: The human lung cancer A549 cell strain is selected. The NOG Mice of 6-8 weeks old are selected.
The DMEM containing 10% fetal bovine serum is selected for the human lung cancer A549 cells, and then is placed in the CO2 constant-temperature incubator at 37° C. for culturing. The A549 cells at the logarithmic phase are digested by pancreatin and thereafter washed with serum-free DMEM; the living cell concentration is adjusted to 1×10^8 cells per milliliter; 20 μL cell suspension is taken and inoculated at the lung of the NOG mice; two weeks later, the orthotopic transplantation tumor model of A549 lung cancer cells is constructed in the NOG mice.

[8] = test system: tumor; test: Early animal pharmacodynamic experiments of PEG-modified rLZ-8; format: in vivo; conditions: compared with rLZ-8
[9] = EGFR extracellular domain coupled on CM5 chip, analyte 4-256 nM

Molecule | Ka [1, 9] [M⁻¹ s⁻¹] | Affinity with the EGFR (in words) [1] | Tumor inhibitory effect (in words) [2] | Mice weight after experiment [2] [g] | Mice tumor weight after experiment [2] [g] | Survival rate of mice after experiment [2] [%] | Mice tumor weight after experiment [3] [g] | Tumor inhibitory effect (in words) [3] | Mice tumor weight after experiment [4] [g] | Tumor inhibitory effect (in words) [4] | Tumor inhibitory effect (in words) [5] | Mice survival rate after experiment [7] [%] | Mice tumor weight after experiment [7] [g] | Mice weight after experiment [7] [g] | Tumor inhibitory effect (in words) [7] | Effect on survival time of the mice (in words) [2] | Effect on survival time (in words) [7] | other results
B1 | 139 | obviously decreased by 2-3 orders of magnitudes | nearly no tumor inhibitory effect | 17.3 ± 1.5 | 1.62 ± 0.72 | 30 | 1.02 ± 0.33 | nearly no tumor inhibitory effect | 3.12 ± 0.54 | nearly no tumor inhibitory effect | nearly no tumor inhibitory effect | 10 | 1.22 ± 0.83 | 17.6 ± 1.4 | nearly no tumor inhibitory effect | – | – | Dissociation rate constant (koff) [1, 9]: 0.00423 s⁻¹; Affinity with the EGFR (in words) ([1]; listed as rLZ-8 (K16A/S18A/K41 A/D45A)): obviously decreased affinity; Binding with the Hep G2 cytomembrane and entering the cell (in words) [6]: little binding amount with the Hep G2 cytomembrane and nearly cannot be observed to enter the cell
B2 | 3720 | obviously decreased by 2-3 orders of magnitudes; also recorded: obviously decreased affinity | nearly no tumor inhibitory effect | 17.6 ± 1.4 | 1.50 ± 0.71 | 30 | 1.04 ± 0.30 | nearly no tumor inhibitory effect | 3.01 ± 0.39 | nearly no tumor inhibitory effect | nearly no tumor inhibitory effect | 30 | 1.20 ± 0.70 | 17.8 ± 1.6 | nearly no tumor inhibitory effect | – | – | –
B3 | 203000 | – | obviously increased tumor inhibitory effects | 20.7 ± 1.7 | 0.35 ± 0.21 | 80 | 0.52 ± 0.28 | obviously increased tumor inhibitory effect | 1.22 ± 0.29 | obviously increased tumor inhibitory effect | obviously increased tumor inhibitory effects | 80 | 0.36 ± 0.28 | 21.1 ± 1.2 | obviously increased tumor inhibitory effect | certain effect on lengthening the survival time | can obviously lengthen the survival time | –
B4 | 215000 | – | obviously increased tumor inhibitory effects | 21.0 ± 1.8 | 0.42 ± 0.23 | 90 | 0.49 ± 0.26 | obviously increased tumor inhibitory effect | 1.09 ± 0.33 | obviously increased tumor inhibitory effect | obviously increased tumor inhibitory effects | 80 | 0.40 ± 0.26 | 21.2 ± 1.5 | obviously increased tumor inhibitory effect | certain effect on lengthening the survival time | can obviously lengthen the survival time | –
B5 | – | – | – | – | – | – | – | – | – | – | – | – | – | – | – | – | – | Antitumor effect (in words) [8]: decreased
